Measurements taken from PMC7849368 (Genes & Development, 2021).

Biological target: T1, Esc2, purified, as used in microscale thermophoresis (budding yeast, UniProt Q06340 1-456)
T1 sequence: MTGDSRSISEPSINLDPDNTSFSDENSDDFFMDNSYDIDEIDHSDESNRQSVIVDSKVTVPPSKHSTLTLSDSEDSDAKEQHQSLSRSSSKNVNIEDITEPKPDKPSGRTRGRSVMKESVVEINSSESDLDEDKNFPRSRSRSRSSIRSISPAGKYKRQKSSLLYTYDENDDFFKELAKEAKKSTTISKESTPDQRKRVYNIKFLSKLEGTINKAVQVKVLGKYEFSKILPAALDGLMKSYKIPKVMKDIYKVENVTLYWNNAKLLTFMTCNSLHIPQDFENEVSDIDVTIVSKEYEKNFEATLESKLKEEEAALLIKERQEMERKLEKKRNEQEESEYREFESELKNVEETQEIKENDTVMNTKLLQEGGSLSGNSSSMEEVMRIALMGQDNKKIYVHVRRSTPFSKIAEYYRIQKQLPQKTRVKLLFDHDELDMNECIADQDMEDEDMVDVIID
Assay: MST

B1: Ubc9, purified (enzyme)
chain: MSSLCLQRLQEERKKWRKDHPFGFYAKPVKKADGSMDLQKWEAGIPGKEGTNWAGGVYPITVEYPNEYPSKPPKVKFPAGFYHPNVYPSGTICLSILNEDQDWRPAITLKQIVLGVQDLLDSPNPNSPAQEPAWRSFSRNKAEYDKKVLLQAKQYSK
modifications: RED-tris-NTA dye on the His tag (MST only)
Binder B1 has a Kd of 372 nM.
